According to patent US8642834B2, “Methods for the identification of agents that inhibit mesenchymal-like tumor cells or their formation” (OSI Pharmaceuticals, LLC, priority 2009, dated 2014):

Test system: CFPAC-1 cells
Assay: Induction of EMT by growth factors and cytokines, E-cadherin and vimentin immunoblotting
Assay type: cell-based, human
Conditions: CFPAC-1 cells treated 7 days with ligand
Method: The CFPAC1 cell line was cultured in DMEM media (Gibco #11960) supplemented with 10% FBS (Sigma), 2 mM L Glutamine (Gibco), at 37° C., 5% CO2. For 7 day treatments, cells were seeded on tissue culture plastic in complete growth media and allowed to attach overnight at cell densities that would provide approximately 60-80% confluence at end of experiment. Ligand and/or inhibitor was added the following day (Day 0) in complete growth media and incubated at 37° C., 5% CO2. Ligand source and concentrations used are as follows: [1] From R&D systems, SDF-1α (stromal derived factor-1 alpha) at 100 ng/ml, TRANCE (TNF-related activation induced cytokine) at 50 ng/ml, FGF1 (fibroblast growth factor acidic) at 10 ng/ml, FGF2 (fibroblast growth factor basic) at 10 ng/ml, BMP4 (bone morphogenetic protein 4) at 100 ng/ml, BMP7 (bone morphogenetic protein 7) at 100 ng/ml, IGF2 (insulin-like growth factor 2) at 100 ng/ml, OSM (Oncostatin M) at 100 ng/ml, NRG1 (Neuregulin-1) at 50 ng/ml, PDGFaa (Platelet derived growth factor a) at 50 ng/ml, PDGFbb (platelet derive growth factor b) at 30 ng/ml, Ang2 (Angiopoeitin 2) at 400 ng/ml, amphiregulin at 100 ng/ml, HMGB 1 (Human high-mobility group box 1 protein) at 50 ng/ml; [2] From Genscript, LIF (Leukemia inhibitory factor) at 20 ng/ml, GM-CSF (Granulocyte macrophage colony stimulating factor) at 25 ng/ml, M-CSF (Macrophage colony stimulating factor) at 50 ng/ml; [3] From Anaspec, PAR1 (Protease activated receptor 1 agonist) at 100 μM; PAR2 (Protease activated receptor 2 agonist; peptide SLIGKV-NH2, Cat. No. 60217-1) at 100 μM; PAR4 (Protease activated receptor […] agonist; peptide AYPGKF-NH2, Cat. No. 60218-1) at 100 μM; [4] From Peprotech, HGF (Hepatocyte Growth Factor) at 100 ng/ml; IL-31 (Interleukin-31) at 50 ng/ml, IL-33 (Interleukin-33) at 50 ng/ml, IL1-a (Interleukin-1 alpha) at 10 ng/ml, CTGF (Connective tissue growth factor) at 20 ng/ml, WISP1 (Wnt-1 inducible signaling pathway protein) at 20 ng/ml, PTHrP ([…] hormone-related protein) at 50 ng/ml, MCP1 (monocyte chemotactic protein-1) at 50 ng/ml; and [5] from Sigma, Fulvestrant at 1 μM. Fresh medium containing ligand and/or inhibitor was added 3-4 days after initial dose, and at Day 7 cells were harvested for western blot analysis.
Cells were harvested by washing once with PBS, and lysing on ice for 10 minutes with scraping (using a Cell Lifter, Corning Inc. #3008) in ice cold RIPA buffer (Sigma R0278) containing Protease inhibitor (Sigma P8340), Phosphatase inhibitors (Sigma P2850, P5726) and 200 μM Sodium Vanadate. Supernatents were micro-centrifuged at max speed, 4° C. for 10 minutes. Protein content was quantitated using the BCA method (Pierce #23225) and samples were normalized to total protein in Laemli buffer and heated at 100° C. for 10 minutes. SDS PAGE was run using a Bis-Tris gel system (Invitrogen NuPAGE) with MOPS buffer (Invitrogen NP0001), transferred onto nitrocellulose using the iBLOT system (Invitrogen) and blocked in PBS-T (0.1% Tween 20), 5% non-fat milk or BSA in guidance with primary Ab supplier requirements. All primary antibodies were incubated overnight at 4° C. in PBS-T (0.1% Tween 20) in either 5% non-fat milk or BSA, diluted to the following working dilutions: anti E Cadherin (Santa Cruz #sc-21791) 1:500 dilution; anti Vimentin (BD Biosciences #550513) 1:2000 dilution;); anti GAPDH HRP conjugate (Santa Cruz sc-25778) 1:1000 dilution; anti β-Actin (Sigma, A5441) 1:10,000 dilution. […]

B1: IL-33: Interleukin-33, Peprotech, 50 ng/ml (protein, UniProt O95760 1-270, looked up)
Interleukin-33: MKPKMKYSTNKISTAKWKNTASKALCFKLGKSQQKAKEVCPMYFMKLRSGLMIKKEACYFRRETTKRPSLKTGRKHKRHLVLAACQQQSTVECFAFGISGVQKYTRALHDSSITGISPITEYLASLSTYNDQSITFALEDESYEIYVEDLKKDEKKDKVLLSYYESQHPSNESGDGVDGKMLMVTLSPTKDFWLHANNKEHSVELHKCEKPLPDQAFFVLHNMHSNCVSFECKTDPGVFIGVKDNHLALIKVDSSENLCTENILFKLSET
Induction of EMT (E-cadherin down, vimentin up): Partial EMT

B2: CTGF: Connective tissue growth factor, Peprotech, 20 ng/ml (protein, UniProt P29279 27-349, looked up)
CCN family member 2: QNCSGPCRCPDEPAPRCPAGVSLVLDGCGCCRVCAKQLGELCTERDPCDPHKGLFCHFGSPANRKIGVCTAKDGAPCIFGGTVYRSGESFQSSCKYQCTCLDGAVGCMPLCSMDVRLPSPDCPFPRRVKLPGKCCEEWVCDEPKDQTVVGPALAAYRLEDTFGPDPTMIRANCLVQTTEWSACSKTCGMGISTRVTNDNASCRLEKQSRLCMVRPCEADLEENIKKGKKCIRTPKISKPIKFELSGCTSMKTYRAKFCGVCTDGRCCTPHRTTTLPVEFKCPDGEVMKKNMMFIKTCACHYNCPGDNDIFESLYYRKMYGDMA
Induction of EMT (E-cadherin down, vimentin up): Partial EMT

B3: BMP4: bone morphogenetic protein 4, R&D systems, 100 ng/ml (protein, UniProt P12644 293-408, looked up)
Bone morphogenetic protein 4: SPKHHSQRARKKNKNCRRHSLYVDFSDVGWNDWIVAPPGYQAFYCHGDCPFPLADHLNSTNHAIVQTLVNSVNSSIPKACCVPTELSAISMLYLDEYDKVVLKNYQEMVVEGCGCR
Induction of EMT (E-cadherin down, vimentin up): Partial EMT

B4: BMP7: bone morphogenetic protein 7, R&D systems, 100 ng/ml (protein, UniProt P18075 293-431, looked up)
Bone morphogenetic protein 7: STGSKQRSQNRSKTPKNQEALRMANVAENSSSDQRQACKKHELYVSFRDLGWQDWIIAPEGYAAYYCEGECAFPLNSYMNATNHAIVQTLVHFINPETVPKPCCAPTQLNAISVLYFDDSSNVILKKYRNMVVRACGCH
Induction of EMT (E-cadherin down, vimentin up): Partial EMT
